Laboratory results reported in patent publication CN114835815A (NINGBO SAIPO BIOTECHNOLOGY CO LTD, dated 2022).
Residue numbers refer to the chain shown, from its start. Blank lines part the entries; values can stand above or below the binder they belong to.

Tests used:
[1] = biological target: 人源PGI蛋白 (human pepsinogen I from human gastric mucosa, Lee Biosolutions, cat. 440-50) (human) (UniProt P0DJD8); experiment: indirect ELISA, human-derived PGI coated at 2 ug/mL, culture supernatant diluted 50-fold
[2] = biological target: T1, 重组PGI蛋白 (recombinant pepsinogen I protein, expressed in HEK293 cells) (Homo sapiens (Human), UniProt P0DJD9 16-388, limits assumed); experiment: indirect ELISA screen of hybridoma supernatants on coated recombinant PGI
T1 construct: Immunogen and ELISA coating antigen; also called PGI重组蛋白; 重组蛋白
T1 sequence (P0DJD9 other isoform, or with tags, fused parts or gaps limits assumed): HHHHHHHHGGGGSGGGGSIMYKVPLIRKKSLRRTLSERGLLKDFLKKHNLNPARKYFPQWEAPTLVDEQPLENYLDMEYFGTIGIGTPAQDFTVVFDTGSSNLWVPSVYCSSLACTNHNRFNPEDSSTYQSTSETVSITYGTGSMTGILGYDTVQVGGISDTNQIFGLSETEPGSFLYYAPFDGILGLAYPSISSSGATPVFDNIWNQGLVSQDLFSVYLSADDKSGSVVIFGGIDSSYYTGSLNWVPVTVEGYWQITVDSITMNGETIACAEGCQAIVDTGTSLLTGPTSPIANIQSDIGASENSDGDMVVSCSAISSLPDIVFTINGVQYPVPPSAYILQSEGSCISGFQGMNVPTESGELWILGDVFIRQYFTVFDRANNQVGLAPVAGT

UniProt P0DJD8, sequence (P0DJD8 16-388): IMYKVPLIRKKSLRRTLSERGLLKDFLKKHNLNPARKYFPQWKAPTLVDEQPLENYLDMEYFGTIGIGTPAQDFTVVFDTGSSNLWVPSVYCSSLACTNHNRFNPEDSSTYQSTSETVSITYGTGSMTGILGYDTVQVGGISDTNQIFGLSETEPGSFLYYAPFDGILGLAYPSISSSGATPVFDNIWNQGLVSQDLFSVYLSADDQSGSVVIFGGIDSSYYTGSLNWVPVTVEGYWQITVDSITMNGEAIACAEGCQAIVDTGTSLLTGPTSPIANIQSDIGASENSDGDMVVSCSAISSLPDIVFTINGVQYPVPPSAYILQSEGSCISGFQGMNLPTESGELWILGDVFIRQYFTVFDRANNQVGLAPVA

OD450 [1]: 2.04 OD450
B1: 鼠单克隆抗体36A2 (antibody, V domains shown)
VH: EIQLQQSGPELVKPGASVKVSCKASGYSFTDYNIYWVKQGHGESLEWIGYIDPYNGDTDYNQKFKDRSTLTVDKSSNTAFMHLNSLTSEDSAVYYCARSRNYYGSSFAYWGQGTLVTVSA
VL: DVLMTQTPLSLPVSLGDQASISCRSSQAIVHGNGNTYLEWSLQKPVHSPKLLIFKVSNRFSGVPDRFSGSGSGTDFTLKISRVEAEDLGVYYCFQGSHVPPTFGGGTKLEIK

binding result [2]: binds | OD450 [1]: 1.87 OD450
B2: 鼠单克隆抗体3D9 (antibody, V domains shown)
VH: QVQLQQSGAELAKPGAAVKMSCKASGYTFTSHWMHWVNQRPGQGLEWIGYINPTTGYSEYNQKFKDKATMTADKSSSTAYMHLRSLTSEDSAVYYCARGAYYYGSSRFDYWGQGTTLTVSS
VL: B1 VL with A28T, G32T, S41Y, V46G, H47Q, F54Y, P101W
notes: Mouse monoclonal antibody from a hybridoma; also called 第一单抗
